Laboratory results from PMC5716544.

Target: functional streptavidin subunit with N-terminal cysteine and His-tag (Streptomyces avidinii) (UniProt P22629)
Assay: refolding of mixed subunits, purification via the His-tag of one subunit, SDS-PAGE of heated and unheated samples; solubilized inclusion bodies mixed at a 1:10 ratio before refolding; tetramer purified via the His-tag of the cysteine-bearing subunit; gel of samples heated 5 min to 95°C (monomers) and of unheated samples (tetramers), room temperature

For “functional SA subunit devoid of cysteine and His-tag (domain or fragment)”, the stoichiometry N was 3.
